# Measurements reported in patent US20170081400A1 (CEPHALON, published 2017).
# T1: human TL1A extracellular domain with N-terminal HIS and FLAG tag (human, UniProt O95150 72-251)
# T1 construct: the whole entry is named; also called TNFSF15
# T1 sequence: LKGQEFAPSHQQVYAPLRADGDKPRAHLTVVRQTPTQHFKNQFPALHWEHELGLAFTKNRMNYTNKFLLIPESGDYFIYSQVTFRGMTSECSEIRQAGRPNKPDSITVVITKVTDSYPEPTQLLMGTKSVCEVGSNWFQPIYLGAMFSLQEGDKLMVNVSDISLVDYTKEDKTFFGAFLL
# Legend:
# [1] = molecular target: T1, human TL1A extracellular domain with …; assay: SPR Run 7, antibody on Protein A, TL1A 5 ug/mL, timepoint 220
# Method in brief: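 Surface plasmon resonance on a Biacore T200 was used, with variants spread over several runs. Antibodies were captured via immobilized Protein A, and their capture level was recorded. Sensorgrams were double-referenced, and the antigen response was read near the end of dissociation.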
# [2] = molecular target: T1, human TL1A extracellular domain with …; assay: SPR Run 7, antibody on Protein A, TL1A 5 ug/mL, timepoint 44
# Method in brief: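 Biacore T200 SPR with antibody (supernatant or Protein A-purified) captured on Protein A amine-coupled to a CM5 chip; capture level recorded as response change at end of capture.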
Binder,TL1A Binding Level (Late) [1],TL1A Binding Level (Early) [2]
"320-560 (antibody, human IgG1, name in Kabat numbering, V domains shown, full-length human IgG1, lambda) VH: QVQLVQSGAEVKKPGASVKVSCKASGYTFTSYDINWVRQAPGQGLEWMGWLNPNSGNTDYAQKFQGRVTMTADRSTSTAYMELSSLRSEDTAVYYCAREVPETAAFEYWGQGTLVTVSS VL: QSVLTQPPSVSGAPGQRVTISCTSSSSDIGAGLGVHWYQQLPGTAPKLLIEGYYNRPSGVPDRFSGSKSGTSASLTITGLLPEDEGDYYCQSYDGTLSALFGGGTKLTVLG",9 RU,36 RU
"320-577 (antibody, human IgG1, name in Kabat numbering, V domains shown, full-length human IgG1, lambda) VH: QVQLVQSGAEVKKPGASVKVSCKASGYTFTSYDINWVRQAPGQGLEWMGWANPNSGNTGYAQKFQGRVTMTADRSTSTAYMELSSLRSEDTAVYYCAREVPETAAFEYWGQGTLVTVSS VL: QSVLTQPPSVSGAPGQRVTISCTSSSSDIGAGLGVHWYQQLPGTAPKLLIEGYYNRPSGVPDRFSGSKSGTSASLTITGLLPEDEGDYYCQSYDGTLSALFGGGTKLTVLG",90 RU,98 RU
"320-564 (antibody, human IgG1, name in Kabat numbering, V domains shown, full-length human IgG1, lambda) VH: QVQLVQSGAEVKKPGASVKVSCKASGYTFTSYDINWVRQAPGQGLEWMGWLNPNSGNTWYAQKFQGRVTMTADRSTSTAYMELSSLRSEDTAVYYCAREVPETAAFEYWGQGTLVTVSS VL: QSVLTQPPSVSGAPGQRVTISCTSSSSDIGAGLGVHWYQQLPGTAPKLLIEGYYNRPSGVPDRFSGSKSGTSASLTITGLLPEDEGDYYCQSYDGTLSALFGGGTKLTVLG",67 RU,72 RU
"320-561 (antibody, human IgG1, name in Kabat numbering, V domains shown, full-length human IgG1, lambda) VH: QVQLVQSGAEVKKPGASVKVSCKASGYTFTSYDINWVRQAPGQGLEWMGWLNPNSGNTHYAQKFQGRVTMTADRSTSTAYMELSSLRSEDTAVYYCAREVPETAAFEYWGQGTLVTVSS VL: QSVLTQPPSVSGAPGQRVTISCTSSSSDIGAGLGVHWYQQLPGTAPKLLIEGYYNRPSGVPDRFSGSKSGTSASLTITGLLPEDEGDYYCQSYDGTLSALFGGGTKLTVLG",6 RU,14 RU
"320-565 (antibody, human IgG1, name in Kabat numbering, V domains shown, full-length human IgG1, lambda) VH: QVQLVQSGAEVKKPGASVKVSCKASGYTFTSYDINWVRQAPGQGLEWMGWLNPNSGNTYYAQKFQGRVTMTADRSTSTAYMELSSLRSEDTAVYYCAREVPETAAFEYWGQGTLVTVSS VL: QSVLTQPPSVSGAPGQRVTISCTSSSSDIGAGLGVHWYQQLPGTAPKLLIEGYYNRPSGVPDRFSGSKSGTSASLTITGLLPEDEGDYYCQSYDGTLSALFGGGTKLTVLG",12 RU,43 RU
"320-568 (antibody, human IgG1, name in Kabat numbering, V domains shown, full-length human IgG1, lambda) VH: QVQLVQSGAEVKKPGASVKVSCKASGYTFTSYDINWVRQAPGQGLEWMGWLNPNSGNTGQAQKFQGRVTMTADRSTSTAYMELSSLRSEDTAVYYCAREVPETAAFEYWGQGTLVTVSS VL: QSVLTQPPSVSGAPGQRVTISCTSSSSDIGAGLGVHWYQQLPGTAPKLLIEGYYNRPSGVPDRFSGSKSGTSASLTITGLLPEDEGDYYCQSYDGTLSALFGGGTKLTVLG",107 RU,115 RU
"320-575 (antibody, human IgG1, name in Kabat numbering, V domains shown, full-length human IgG1, lambda) VH: QVQLVQSGAEVKKPGASVKVSCKASGYTFTSYDINWVRQAPGQGLEWMGWLNPNSGNTGYHQKFQGRVTMTADRSTSTAYMELSSLRSEDTAVYYCAREVPETAAFEYWGQGTLVTVSS VL: QSVLTQPPSVSGAPGQRVTISCTSSSSDIGAGLGVHWYQQLPGTAPKLLIEGYYNRPSGVPDRFSGSKSGTSASLTITGLLPEDEGDYYCQSYDGTLSALFGGGTKLTVLG",110 RU,121 RU
"320-567 (antibody, human IgG1, name in Kabat numbering, V domains shown, full-length human IgG1, lambda) VH: QVQLVQSGAEVKKPGASVKVSCKASGYTFTSYDINWVRQAPGQGLEWMGWLNPNSGNTGSAQKFQGRVTMTADRSTSTAYMELSSLRSEDTAVYYCAREVPETAAFEYWGQGTLVTVSS VL: QSVLTQPPSVSGAPGQRVTISCTSSSSDIGAGLGVHWYQQLPGTAPKLLIEGYYNRPSGVPDRFSGSKSGTSASLTITGLLPEDEGDYYCQSYDGTLSALFGGGTKLTVLG",86 RU,96 RU
"320-579 (antibody, human IgG1, name in Kabat numbering, V domains shown, full-length human IgG1, lambda) VH: QVQLVQSGAEVKKPGASVKVSCKASGYTFTSYDINWVRQAPGQGLEWMGWLLPNSGNTGYAQKFQGRVTMTADRSTSTAYMELSSLRSEDTAVYYCAREVPETAAFEYWGQGTLVTVSS VL: QSVLTQPPSVSGAPGQRVTISCTSSSSDIGAGLGVHWYQQLPGTAPKLLIEGYYNRPSGVPDRFSGSKSGTSASLTITGLLPEDEGDYYCQSYDGTLSALFGGGTKLTVLG",41 RU,46 RU
"320-574 (antibody, human IgG1, name in Kabat numbering, V domains shown, full-length human IgG1, lambda) VH: QVQLVQSGAEVKKPGASVKVSCKASGYTFTSYDINWVRQAPGQGLEWMGWLNPNSGNTGYDQKFQGRVTMTADRSTSTAYMELSSLRSEDTAVYYCAREVPETAAFEYWGQGTLVTVSS VL: QSVLTQPPSVSGAPGQRVTISCTSSSSDIGAGLGVHWYQQLPGTAPKLLIEGYYNRPSGVPDRFSGSKSGTSASLTITGLLPEDEGDYYCQSYDGTLSALFGGGTKLTVLG",130 RU,140 RU
"320-572 (antibody, human IgG1, name in Kabat numbering, V domains shown, full-length human IgG1, lambda) VH: QVQLVQSGAEVKKPGASVKVSCKASGYTFTSYDINWVRQAPGQGLEWMGWLNPNSGNTGYSQKFQGRVTMTADRSTSTAYMELSSLRSEDTAVYYCAREVPETAAFEYWGQGTLVTVSS VL: QSVLTQPPSVSGAPGQRVTISCTSSSSDIGAGLGVHWYQQLPGTAPKLLIEGYYNRPSGVPDRFSGSKSGTSASLTITGLLPEDEGDYYCQSYDGTLSALFGGGTKLTVLG",90 RU,98 RU
"320-570 (antibody, human IgG1, name in Kabat numbering, V domains shown, full-length human IgG1, lambda) VH: QVQLVQSGAEVKKPGASVKVSCKASGYTFTSYDINWVRQAPGQGLEWMGWLNPNSGNTGHAQKFQGRVTMTADRSTSTAYMELSSLRSEDTAVYYCAREVPETAAFEYWGQGTLVTVSS VL: QSVLTQPPSVSGAPGQRVTISCTSSSSDIGAGLGVHWYQQLPGTAPKLLIEGYYNRPSGVPDRFSGSKSGTSASLTITGLLPEDEGDYYCQSYDGTLSALFGGGTKLTVLG",72 RU,79 RU
"320-573 (antibody, human IgG1, name in Kabat numbering, V domains shown, full-length human IgG1, lambda) VH: QVQLVQSGAEVKKPGASVKVSCKASGYTFTSYDINWVRQAPGQGLEWMGWLNPNSGNTGYQQKFQGRVTMTADRSTSTAYMELSSLRSEDTAVYYCAREVPETAAFEYWGQGTLVTVSS VL: QSVLTQPPSVSGAPGQRVTISCTSSSSDIGAGLGVHWYQQLPGTAPKLLIEGYYNRPSGVPDRFSGSKSGTSASLTITGLLPEDEGDYYCQSYDGTLSALFGGGTKLTVLG",62 RU,67 RU
"320-569 (antibody, human IgG1, name in Kabat numbering, V domains shown, full-length human IgG1, lambda) VH: QVQLVQSGAEVKKPGASVKVSCKASGYTFTSYDINWVRQAPGQGLEWMGWLNPNSGNTGDAQKFQGRVTMTADRSTSTAYMELSSLRSEDTAVYYCAREVPETAAFEYWGQGTLVTVSS VL: QSVLTQPPSVSGAPGQRVTISCTSSSSDIGAGLGVHWYQQLPGTAPKLLIEGYYNRPSGVPDRFSGSKSGTSASLTITGLLPEDEGDYYCQSYDGTLSALFGGGTKLTVLG",73 RU,79 RU
"320-571 (antibody, human IgG1, name in Kabat numbering, V domains shown, full-length human IgG1, lambda) VH: QVQLVQSGAEVKKPGASVKVSCKASGYTFTSYDINWVRQAPGQGLEWMGWLNPNSGNTGKAQKFQGRVTMTADRSTSTAYMELSSLRSEDTAVYYCAREVPETAAFEYWGQGTLVTVSS VL: QSVLTQPPSVSGAPGQRVTISCTSSSSDIGAGLGVHWYQQLPGTAPKLLIEGYYNRPSGVPDRFSGSKSGTSASLTITGLLPEDEGDYYCQSYDGTLSALFGGGTKLTVLG",72 RU,78 RU
"320-578 (antibody, human IgG1, name in Kabat numbering, V domains shown, full-length human IgG1, lambda) VH: QVQLVQSGAEVKKPGASVKVSCKASGYTFTSYDINWVRQAPGQGLEWMGWYNPNSGNTGYAQKFQGRVTMTADRSTSTAYMELSSLRSEDTAVYYCAREVPETAAFEYWGQGTLVTVSS VL: QSVLTQPPSVSGAPGQRVTISCTSSSSDIGAGLGVHWYQQLPGTAPKLLIEGYYNRPSGVPDRFSGSKSGTSASLTITGLLPEDEGDYYCQSYDGTLSALFGGGTKLTVLG",77 RU,83 RU
"320-566 (antibody, human IgG1, name in Kabat numbering, V domains shown, full-length human IgG1, lambda) VH: QVQLVQSGAEVKKPGASVKVSCKASGYTFTSYDINWVRQAPGQGLEWMGWLNPNSGNTGAAQKFQGRVTMTADRSTSTAYMELSSLRSEDTAVYYCAREVPETAAFEYWGQGTLVTVSS VL: QSVLTQPPSVSGAPGQRVTISCTSSSSDIGAGLGVHWYQQLPGTAPKLLIEGYYNRPSGVPDRFSGSKSGTSASLTITGLLPEDEGDYYCQSYDGTLSALFGGGTKLTVLG",110 RU,120 RU
"320-576 (antibody, human IgG1, name in Kabat numbering, V domains shown, full-length human IgG1, lambda) VH: QVQLVQSGAEVKKPGASVKVSCKASGYTFTSYDINWVRQAPGQGLEWMGWLNPNSGNTGYKQKFQGRVTMTADRSTSTAYMELSSLRSEDTAVYYCAREVPETAAFEYWGQGTLVTVSS VL: QSVLTQPPSVSGAPGQRVTISCTSSSSDIGAGLGVHWYQQLPGTAPKLLIEGYYNRPSGVPDRFSGSKSGTSASLTITGLLPEDEGDYYCQSYDGTLSALFGGGTKLTVLG",83 RU,90 RU
